B1: Disabled homolog 1 (Mus musculus), P97318 (parent)
chain: MSTETELQVAVKTSAKKDSRKKGQDRSEATLIKRFKGEGVRYKAKLIGIDEVSAARGDKLCQDSMMKLKGVVAGARSKGEHKQKIFLTISFGGIKIFDEKTGALQHHHAVHEISYIAKDITDHRAFGYVCGKEGNHRFVAIKTAQAAEPVILDLRDLFQLIYELKQREELEKKAQKDKQCEQAVYQTILEEDVEDPVYQYIVFEAGHEPIRDPETEENIYQVPTSQKKEGVYDVPKSQPNSQPLEDFESRFAAATPNRNLSMDFDELLEATKVSAVTQLELFGDMSTPPDITSPPTPATPGDAFLPSSSQTLPGSADVFGSMSFGTAAVPSGYVAMGAVLPSFWGQQPLVQQQIAMGAQPPVAQVIPGAQPIAWGQPGLFPATQQAWPTVAGQFPPAAFMPTQTVMPLAAAMFQGPLTPLATVPGTNDSARSSPQSDKPRQKMGKESFKDFQMVQPPPVPSRKPDQPSLTCTSEAFSSYFNKVGVAQDTDDCDDFDISQLNLTPVTSTTPSTNSPPTPAPRQSSPSKSSASHVSDPTADDIFEEGFESPSKSEEQEAPDGSQASSTSDPFGEPSGEPSGDNISPQDGS
partner: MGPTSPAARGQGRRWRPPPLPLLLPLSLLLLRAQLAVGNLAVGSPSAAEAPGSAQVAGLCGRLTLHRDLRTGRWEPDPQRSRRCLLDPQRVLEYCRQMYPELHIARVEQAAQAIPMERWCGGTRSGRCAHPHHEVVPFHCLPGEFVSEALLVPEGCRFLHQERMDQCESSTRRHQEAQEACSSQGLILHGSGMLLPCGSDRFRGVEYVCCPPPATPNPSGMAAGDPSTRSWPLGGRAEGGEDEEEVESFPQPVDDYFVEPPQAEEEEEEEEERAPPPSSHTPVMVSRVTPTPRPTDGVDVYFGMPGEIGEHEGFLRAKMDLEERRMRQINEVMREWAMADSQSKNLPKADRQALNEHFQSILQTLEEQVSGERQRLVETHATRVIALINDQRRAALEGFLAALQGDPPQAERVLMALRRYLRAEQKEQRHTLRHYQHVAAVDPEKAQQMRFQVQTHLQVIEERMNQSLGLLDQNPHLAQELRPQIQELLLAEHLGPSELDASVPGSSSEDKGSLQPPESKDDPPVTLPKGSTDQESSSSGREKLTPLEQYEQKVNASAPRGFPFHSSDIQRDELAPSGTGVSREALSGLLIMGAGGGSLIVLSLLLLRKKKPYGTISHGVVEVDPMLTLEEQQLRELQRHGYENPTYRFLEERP

In the assay the parent is B1. Conditions: with aplp1_mouse Aplp1, Q03157.
On to F158V, for which the “effect of a mutation on the interaction” value is given as “disrupting interaction”.
Regarding H136R, the “effect of a mutation on the interaction” value was “decreasing interaction”.
For S114T, the “effect of a mutation on the interaction” value is recorded as “disrupting interaction”.

(Values after IntAct's records for PubMed 12826668.)
